How the values were obtained:
[1] = target: T1, GST-recombinant human FoXO3a, O43524
T1 chain: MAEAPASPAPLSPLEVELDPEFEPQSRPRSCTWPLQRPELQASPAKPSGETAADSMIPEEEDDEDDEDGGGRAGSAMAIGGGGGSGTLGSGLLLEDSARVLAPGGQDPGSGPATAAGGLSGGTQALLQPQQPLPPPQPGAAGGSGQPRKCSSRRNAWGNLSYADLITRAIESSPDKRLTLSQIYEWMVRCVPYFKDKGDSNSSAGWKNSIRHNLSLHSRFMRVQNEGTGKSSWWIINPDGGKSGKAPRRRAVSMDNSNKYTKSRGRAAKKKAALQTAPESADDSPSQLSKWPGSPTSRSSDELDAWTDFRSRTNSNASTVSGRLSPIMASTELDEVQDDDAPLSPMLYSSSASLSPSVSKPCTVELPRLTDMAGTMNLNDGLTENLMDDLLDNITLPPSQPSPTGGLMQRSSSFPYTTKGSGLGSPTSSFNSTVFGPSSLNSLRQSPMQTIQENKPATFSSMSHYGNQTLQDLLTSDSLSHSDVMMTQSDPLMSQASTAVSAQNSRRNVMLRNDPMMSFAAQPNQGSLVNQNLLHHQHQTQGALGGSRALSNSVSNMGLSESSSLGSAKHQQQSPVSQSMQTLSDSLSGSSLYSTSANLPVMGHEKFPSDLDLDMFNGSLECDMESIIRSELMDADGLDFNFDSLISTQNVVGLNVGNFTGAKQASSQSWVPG

[2] = target: T2, full length recombinant human ERα protein (Invitrogen), P03372
T2 chain: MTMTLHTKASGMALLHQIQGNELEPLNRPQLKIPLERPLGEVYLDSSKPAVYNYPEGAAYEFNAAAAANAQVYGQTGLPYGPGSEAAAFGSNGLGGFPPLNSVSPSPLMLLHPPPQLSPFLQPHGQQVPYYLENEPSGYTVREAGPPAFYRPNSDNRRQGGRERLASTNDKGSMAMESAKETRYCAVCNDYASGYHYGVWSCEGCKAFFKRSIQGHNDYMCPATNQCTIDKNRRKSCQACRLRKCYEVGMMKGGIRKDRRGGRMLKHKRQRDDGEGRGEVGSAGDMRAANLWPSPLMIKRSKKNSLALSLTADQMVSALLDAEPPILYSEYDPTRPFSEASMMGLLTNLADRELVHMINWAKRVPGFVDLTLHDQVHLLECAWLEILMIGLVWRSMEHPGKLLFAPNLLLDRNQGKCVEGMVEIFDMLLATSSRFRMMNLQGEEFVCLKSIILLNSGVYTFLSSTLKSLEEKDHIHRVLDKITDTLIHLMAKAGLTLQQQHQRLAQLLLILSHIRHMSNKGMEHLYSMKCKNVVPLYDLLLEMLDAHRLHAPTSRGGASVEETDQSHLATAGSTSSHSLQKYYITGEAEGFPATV

[3] = target: recombinant PKC (Promega)

B1: recombinant LMTK3 kinase domain (protein)
chain: LSYLQEIGSGWFGKVILGEIFSDYTPAQVVVKELRASAGPLEQRKFISEAQPYRSLQHPNVLQCLGLCVETLPFLLIMEFCQLGDLKRYLRAQRPPEGLSPELPPRDLRTLQRMGLEIARGLAHLHSHNYVHSDLALRNCLLTSDLTVRIGDYGLAHSNYKEDYYLTPERLWIPLRWAAPELLGELHGTFMVVDQSRESNIWSLGVTLWELFEFGAQPYRHLSDEEVLAFVVRQQHVKLARPRLKLPYADYWYDILQSCWRPPAQRPSASDLQLQLTYL
in vitro kinase assay (32P autoradiography) [1]: LMTK3 directly phosphorylates ... FoxO3a
in vitro phosphorylation followed by in vitro proteasome degradation assay [2]: phosphorylation of ERα by LMTK3 (FIG. 20d) rescued ERα from in vitro proteasome-mediated degradation (FIG. 20e)
in vitro kinase assay, PKC phosphorylation of histone [3]: LMTK3 inhibits the ability of PKC to phosphorylate histone

Source: patent US20160356775
